Results as given in article PMC8685454.

What was measured:
[1] = target: commercial Spike protein, active Recombinant 2019-nCoV Spike Protein, RBD, His Tag (SARS-CoV-2) (UniProt P0DTC2); assay: ELISA
[2] = target: plant produced deglycosylated Receptor Binding Domain of Spike protein of SARS-CoV-2 (SARS-CoV-2) (UniProt P0DTC2); assay: ELISA

plant produced Endo H in vivo deglycosylated soluble (truncated) human ACE2 (receptor)
Kd [1]: 4.68 nM | Kd [2]: 1.29 nM
